Experimental data from patent US20180200331A1, “BST-2 AS A THERAPEUTIC TARGET AND DIAGNOSTIC MARKER FOR BREAST CANCER GROWTH AND METASTASIS” (University of Iowa Research Foundation, priority 2015, published 2018).

What was measured:
BST-2 = assay: Adhesion of cancer cells to plates coated with recombinant BST-2; format: cell-based; conditions: plates coated with 0, 20 or 50 ng rBST-2
Protocol: (§1) FIG. 22. […] PKH67Green-labeled shControl (shCTL)- or sh413 (shBST-2)-expressing (A) 4T1 or (B) E0771 cells were allowed to adhere to plates that were coated with 0, 20 or 50 ng of recombinant BST-2 (rBST-2) and fluorescence assessed with a plate reader. (C) Representative confocal images of cells attached to wells coated with increasing concentrations of rBST-2. (D) Quantification of PKH67Green-labeled MCF-7 cells expressing Vector, WT or C3A BST-2 adhered to plates that were coated with 0, 20 or 50 ng of rBST-2. […] Cells that adhered to WT MCF-7 monolayers were quantified and represented as relative fluorescence intensity. Each data point corresponds to six different wells analyzed. Error bars correspond to SEM. Significance was taken at P<0.05* and P<0.01**. n.s=not significant.
Low BST-2 expressing human breast cancer cells (MCF-7) stably expressing WT BST-2 (WT) efficiently binds BST-2 ECD while similar cells stably expressing dimerization mutant BST-2 (C3A) are defective in binding BST-2 ECD. Treatment of BST-2-expressing breast cancer cells with BST-2 ECD blocks cancer cell-to-cancer clustering (FIG. 22).

MCF-7 cells = assay: Adhesion to MCF-7 WT monolayers blocked with rBST-2; format: cell-based, human
Protocol: as §1

B1: rBST-2: recombinant extracellular domain (ECD) of BST-2 (protein, UniProt Q10589 49-161, looked up)
extracellular domain: NSEACRDGLRAVMECRNVTHLLQQELTEAQKGFQDVEAQAATCNHTVMALMASLDAEKAQGQKKVEELEGEITTLNHKLQDASAEVERLRRENQVLSVRIADKKYYPSSQDSS
modifications: extracellular domain
With B1 the “binding to BST-2” value (BST-2) was “binds to BST-2 in vitro” and the “BST-2-mediated adhesion of breast cancer cells” value (MCF-7 cells) was “prevents BST-2-mediated adhesion of breast cancer cells”.
